Assay results as given in article PMC9482650, “Quantitative fragmentomics allow affinity mapping of interactomes” (Nature Communications, 2022).

B1: ADGRG1, Q9Y653 (peptide)
chain: SSGSTSSSRI
B2: SEMA4C, Q9C0C4 (peptide)
chain: PDSNPEESSV
B3: CLDN9, O95484 (peptide)
chain: ASGLDKRDYV
B4: KCNT1, Q5JUK3 (peptide)
chain: NPETRDETQL
B5: GAB3, Q8WWW8 (peptide)
chain: EWTDERQSKV

Target: T1, NHERF3_1, Q5T2W1
T1 sequence (Q5T2W1 4-100, limits assumed, looked up): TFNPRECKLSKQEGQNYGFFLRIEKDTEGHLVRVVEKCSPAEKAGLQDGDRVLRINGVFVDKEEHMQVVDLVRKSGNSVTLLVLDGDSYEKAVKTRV
Experiment: holdup assay
Parameters: key: below the threshold = too weak to quantify, mostly under pKd 3.1 to 4
Conditions: plain residues with an end cap or a label only (N-terminal biotin on a linker: ado-ado)

Row | Binder | pKd
1 | B1 | 4.48
2 | B2 | 3.56
3 | B3 | 4.46
4 | B4 | 5.27
5 | B5 | 4.36

Target: FRMPD2_2, Q68DX3
Experiment: holdup assay
Parameters: key: below the threshold = too weak to quantify, mostly under pKd 3.1 to 4
Conditions: plain residues with an end cap or a label only (N-terminal biotin on a linker: ado-ado)

FRMPD2_2, Q68DX3, sequence (Q68DX3 944-1038): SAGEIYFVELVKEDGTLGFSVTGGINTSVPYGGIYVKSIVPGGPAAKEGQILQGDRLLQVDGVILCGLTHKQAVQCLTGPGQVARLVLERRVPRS

Row | Binder | pKd
6 | B1 | below the threshold
7 | B2 | 4.27
8 | B3 | below the threshold
9 | B4 | below the threshold
10 | B5 | 3.52

Target: T2, MPDZ_10, O75970
T2 sequence (O75970 1624-1722, limits assumed, looked up): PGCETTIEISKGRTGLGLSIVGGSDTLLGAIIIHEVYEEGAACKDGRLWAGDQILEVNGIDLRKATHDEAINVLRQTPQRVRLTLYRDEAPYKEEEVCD
Experiment: holdup assay
Parameters: key: below the threshold = too weak to quantify, mostly under pKd 3.1 to 4
Conditions: plain residues with an end cap or a label only (N-terminal biotin on a linker: ado-ado)

Row | Binder | pKd
11 | B1 | below the threshold
12 | B2 | below the threshold
13 | B3 | below the threshold
14 | B4 | below the threshold
15 | B5 | 3.75

Target: DLG1_2, Q12959
Experiment: holdup assay
Parameters: key: below the threshold = too weak to quantify, mostly under pKd 3.1 to 4
Conditions: plain residues with an end cap or a label only (N-terminal biotin on a linker: ado-ado)

DLG1_2, Q12959, sequence (Q12959 314-412): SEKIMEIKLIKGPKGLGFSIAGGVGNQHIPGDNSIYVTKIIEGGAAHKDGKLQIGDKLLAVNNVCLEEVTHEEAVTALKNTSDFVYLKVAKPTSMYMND

Row | Binder | pKd
16 | B1 | below the threshold
17 | B2 | 4.3
18 | B3 | below the threshold
19 | B4 | 3.88
20 | B5 | 4.01

Target: Inadl_1, Q8NI35
Experiment: holdup assay
Parameters: key: below the threshold = too weak to quantify, mostly under pKd 3.1 to 4
Conditions: plain residues with an end cap or a label only (N-terminal biotin on a linker: ado-ado)

Inadl_1, Q8NI35, sequence (Q8NI35 113-229): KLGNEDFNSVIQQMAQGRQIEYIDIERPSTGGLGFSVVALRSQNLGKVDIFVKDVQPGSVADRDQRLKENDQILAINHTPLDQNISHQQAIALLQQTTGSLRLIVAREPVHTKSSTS

Row | Binder | pKd
21 | B1 | below the threshold
22 | B2 | below the threshold
23 | B3 | below the threshold
24 | B4 | below the threshold
25 | B5 | below the threshold

Target: MAGI2_5, Q86UL8
Experiment: holdup assay
Parameters: key: below the threshold = too weak to quantify, mostly under pKd 3.1 to 4
Conditions: plain residues with an end cap or a label only (N-terminal biotin on a linker: ado-ado)

MAGI2_5, Q86UL8, sequence (Q86UL8 915-1017): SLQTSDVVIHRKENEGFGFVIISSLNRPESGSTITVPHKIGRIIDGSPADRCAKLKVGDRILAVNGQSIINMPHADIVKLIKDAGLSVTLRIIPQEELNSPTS

Row | Binder | pKd
26 | B1 | below the threshold
27 | B2 | 3.89
28 | B3 | below the threshold
29 | B4 | 3.75
30 | B5 | 3.95

Target: T3, GRIP1_5, Q9Y3R0
T3 sequence (Q9Y3R0 568-668, limits assumed, looked up): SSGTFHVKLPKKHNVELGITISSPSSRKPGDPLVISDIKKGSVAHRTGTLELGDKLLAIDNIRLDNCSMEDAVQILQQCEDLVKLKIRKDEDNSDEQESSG
Experiment: holdup assay
Parameters: key: below the threshold = too weak to quantify, mostly under pKd 3.1 to 4
Conditions: plain residues with an end cap or a label only (N-terminal biotin on a linker: ado-ado)

Row | Binder | pKd
31 | B1 | below the threshold
32 | B2 | below the threshold
33 | B3 | below the threshold
34 | B4 | below the threshold
35 | B5 | below the threshold

Target: SCRIB_3, Q14160
Experiment: holdup assay
Parameters: key: below the threshold = too weak to quantify, mostly under pKd 3.1 to 4
Conditions: plain residues with an end cap or a label only (N-terminal biotin on a linker: ado-ado)

SCRIB_3, Q14160, sequence (Q14160 999-1103): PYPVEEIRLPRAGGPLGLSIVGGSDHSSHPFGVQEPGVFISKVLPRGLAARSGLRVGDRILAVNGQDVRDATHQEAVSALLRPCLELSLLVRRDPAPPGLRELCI

Row | Binder | pKd
36 | B1 | below the threshold
37 | B2 | 4.45
38 | B3 | below the threshold
39 | B4 | 4.84
40 | B5 | below the threshold

Target: NHERF4_2, Q86UT5
Experiment: holdup assay
Parameters: key: below the threshold = too weak to quantify, mostly under pKd 3.1 to 4
Conditions: plain residues with an end cap or a label only (N-terminal biotin on a linker: ado-ado)

NHERF4_2, Q86UT5, sequence (Q86UT5 220-308): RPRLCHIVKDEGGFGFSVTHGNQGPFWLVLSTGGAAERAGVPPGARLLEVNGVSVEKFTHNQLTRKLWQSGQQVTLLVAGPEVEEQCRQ

Row | Binder | pKd
41 | B1 | below the threshold
42 | B2 | below the threshold
43 | B3 | below the threshold
44 | B4 | below the threshold
45 | B5 | below the threshold

Target: Inadl_4, Q8NI35
Experiment: holdup assay
Parameters: key: below the threshold = too weak to quantify, mostly under pKd 3.1 to 4
Conditions: plain residues with an end cap or a label only (N-terminal biotin on a linker: ado-ado)

Inadl_4, Q8NI35, sequence (Q8NI35 547-651): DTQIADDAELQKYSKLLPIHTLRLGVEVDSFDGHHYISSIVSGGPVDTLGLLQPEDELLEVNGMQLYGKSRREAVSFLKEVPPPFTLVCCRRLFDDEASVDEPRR

Row | Binder | pKd
46 | B1 | below the threshold
47 | B2 | 3.48
48 | B3 | below the threshold
49 | B4 | below the threshold
50 | B5 | below the threshold

Target: T4, CARD11, Q9BXL7
T4 sequence (Q9BXL7 662-765, limits assumed, looked up): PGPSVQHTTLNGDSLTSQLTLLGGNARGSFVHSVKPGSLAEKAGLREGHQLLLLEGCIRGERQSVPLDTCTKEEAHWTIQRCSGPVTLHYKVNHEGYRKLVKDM
Experiment: holdup assay
Parameters: key: below the threshold = too weak to quantify, mostly under pKd 3.1 to 4
Conditions: plain residues with an end cap or a label only (N-terminal biotin on a linker: ado-ado)

Row | Binder | pKd
51 | B1 | below the threshold
52 | B2 | below the threshold
53 | B3 | below the threshold
54 | B4 | below the threshold
55 | B5 | below the threshold

Target: DLG1_3, Q12959
Experiment: holdup assay
Parameters: key: below the threshold = too weak to quantify, mostly under pKd 3.1 to 4
Conditions: plain residues with an end cap or a label only (N-terminal biotin on a linker: ado-ado)

DLG1_3, Q12959, sequence (Q12959 457-571): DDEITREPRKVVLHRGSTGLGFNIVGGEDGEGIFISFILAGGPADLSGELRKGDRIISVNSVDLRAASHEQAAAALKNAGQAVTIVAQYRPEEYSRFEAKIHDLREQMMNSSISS

Row | Binder | pKd
56 | B1 | 3.87
57 | B2 | 3.65
58 | B3 | below the threshold
59 | B4 | below the threshold
60 | B5 | 3.76

Target: PTPN3, P26045
Experiment: holdup assay
Parameters: key: below the threshold = too weak to quantify, mostly under pKd 3.1 to 4
Conditions: plain residues with an end cap or a label only (N-terminal biotin on a linker: ado-ado)

PTPN3, P26045, sequence (P26045 505-587): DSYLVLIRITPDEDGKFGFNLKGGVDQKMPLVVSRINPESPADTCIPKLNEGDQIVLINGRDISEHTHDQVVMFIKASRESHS

Row | Binder | pKd
61 | B1 | 3.86
62 | B2 | 4.83
63 | B3 | below the threshold
64 | B4 | 4.78
65 | B5 | 4.12

Target: MAGI2_2, Q86UL8
Experiment: holdup assay
Parameters: key: below the threshold = too weak to quantify, mostly under pKd 3.1 to 4
Conditions: plain residues with an end cap or a label only (N-terminal biotin on a linker: ado-ado)

MAGI2_2, Q86UL8, sequence (Q86UL8 410-522): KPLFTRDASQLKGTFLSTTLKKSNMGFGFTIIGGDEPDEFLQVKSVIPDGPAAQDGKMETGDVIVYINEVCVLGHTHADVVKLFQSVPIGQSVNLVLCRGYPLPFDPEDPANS

Row | Binder | pKd
66 | B1 | below the threshold
67 | B2 | below the threshold
68 | B3 | below the threshold
69 | B4 | below the threshold
70 | B5 | below the threshold

Target: HTRA2, O43464
Experiment: holdup assay
Parameters: key: below the threshold = too weak to quantify, mostly under pKd 3.1 to 4
Conditions: plain residues with an end cap or a label only (N-terminal biotin on a linker: ado-ado)

HTRA2, O43464, sequence (O43464 355-458): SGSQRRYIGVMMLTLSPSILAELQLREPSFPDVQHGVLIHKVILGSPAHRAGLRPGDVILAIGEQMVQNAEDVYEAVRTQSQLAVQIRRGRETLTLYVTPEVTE

Row | Binder | pKd
71 | B1 | below the threshold
72 | B2 | below the threshold
73 | B3 | below the threshold
74 | B4 | below the threshold
75 | B5 | below the threshold

Target: DLG2_3, Q15700
Experiment: holdup assay
Parameters: key: below the threshold = too weak to quantify, mostly under pKd 3.1 to 4
Conditions: plain residues with an end cap or a label only (N-terminal biotin on a linker: ado-ado)

Row | Binder | pKd
76 | B1 | 3.73
77 | B2 | below the threshold
78 | B3 | below the threshold
79 | B4 | below the threshold
80 | B5 | below the threshold

Target: T5, SNTA1, Q13424
T5 sequence (Q13424 82-180, limits assumed, looked up): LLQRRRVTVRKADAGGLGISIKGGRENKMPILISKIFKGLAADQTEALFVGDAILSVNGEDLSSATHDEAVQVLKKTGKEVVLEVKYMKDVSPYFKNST
Experiment: holdup assay
Parameters: key: below the threshold = too weak to quantify, mostly under pKd 3.1 to 4
Conditions: plain residues with an end cap or a label only (N-terminal biotin on a linker: ado-ado)

Row | Binder | pKd
81 | B1 | below the threshold
82 | B2 | 4.25
83 | B3 | below the threshold
84 | B4 | 4.04
85 | B5 | 4.43

Target: T6, GRIP1_3, Q9Y3R0
T6 sequence (Q9Y3R0 247-346, limits assumed, looked up): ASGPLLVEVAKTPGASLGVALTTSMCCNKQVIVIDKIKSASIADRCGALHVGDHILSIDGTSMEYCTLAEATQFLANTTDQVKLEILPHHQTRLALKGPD
Experiment: holdup assay
Parameters: key: below the threshold = too weak to quantify, mostly under pKd 3.1 to 4
Conditions: plain residues with an end cap or a label only (N-terminal biotin on a linker: ado-ado)

Row | Binder | pKd
86 | B1 | below the threshold
87 | B2 | below the threshold
88 | B3 | below the threshold
89 | B4 | below the threshold
90 | B5 | below the threshold

Target: MAGI2_6, Q86UL8
Experiment: holdup assay
Parameters: key: below the threshold = too weak to quantify, mostly under pKd 3.1 to 4
Conditions: plain residues with an end cap or a label only (N-terminal biotin on a linker: ado-ado)

MAGI2_6, Q86UL8, sequence (Q86UL8 1141-1229): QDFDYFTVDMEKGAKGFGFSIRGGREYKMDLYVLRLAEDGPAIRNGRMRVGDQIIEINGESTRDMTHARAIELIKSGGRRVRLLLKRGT

Row | Binder | pKd
91 | B1 | below the threshold
92 | B2 | 4.27
93 | B3 | below the threshold
94 | B4 | 3.51
95 | B5 | 3.53

Target: T7, ARHGEF11, O15085
T7 sequence (O15085 42-136, limits assumed, looked up): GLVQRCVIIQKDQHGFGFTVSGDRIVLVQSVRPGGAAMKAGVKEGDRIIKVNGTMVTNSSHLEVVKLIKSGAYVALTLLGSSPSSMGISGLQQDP
Experiment: holdup assay
Parameters: key: below the threshold = too weak to quantify, mostly under pKd 3.1 to 4
Conditions: plain residues with an end cap or a label only (N-terminal biotin on a linker: ado-ado)

Row | Binder | pKd
96 | B1 | 3.93
97 | B2 | 3.83
98 | B3 | below the threshold
99 | B4 | 4.01
100 | B5 | 3.75

Target: GRIP2_5, Q9C0E4
Experiment: holdup assay
Parameters: key: below the threshold = too weak to quantify, mostly under pKd 3.1 to 4
Conditions: plain residues with an end cap or a label only (N-terminal biotin on a linker: ado-ado)

GRIP2_5, Q9C0E4, sequence (Q9C0E4 544-642): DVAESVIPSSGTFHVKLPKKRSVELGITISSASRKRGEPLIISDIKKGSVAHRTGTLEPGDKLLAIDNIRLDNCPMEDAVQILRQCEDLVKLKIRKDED

Row | Binder | pKd
101 | B1 | below the threshold
102 | B2 | below the threshold
103 | B3 | below the threshold
104 | B4 | below the threshold
105 | B5 | below the threshold

Target: T8, LNX2_3, Q8N448
T8 sequence (Q8N448 463-564, limits assumed, looked up): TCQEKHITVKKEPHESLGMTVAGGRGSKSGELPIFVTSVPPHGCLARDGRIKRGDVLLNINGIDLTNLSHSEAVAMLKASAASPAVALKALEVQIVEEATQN
Experiment: holdup assay
Parameters: key: below the threshold = too weak to quantify, mostly under pKd 3.1 to 4
Conditions: plain residues with an end cap or a label only (N-terminal biotin on a linker: ado-ado)

Row | Binder | pKd
106 | B1 | below the threshold
107 | B2 | 3.62
108 | B3 | below the threshold
109 | B4 | below the threshold
110 | B5 | below the threshold

Target: T9, DFNB31_3, Q9P202
T9 sequence (Q9P202 811-907, limits assumed, looked up): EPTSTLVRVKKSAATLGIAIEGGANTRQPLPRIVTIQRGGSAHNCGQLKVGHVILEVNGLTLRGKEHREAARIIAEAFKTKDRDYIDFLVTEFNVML
Experiment: holdup assay
Parameters: key: below the threshold = too weak to quantify, mostly under pKd 3.1 to 4
Conditions: plain residues with an end cap or a label only (N-terminal biotin on a linker: ado-ado)

Row | Binder | pKd
111 | B1 | 3.96
112 | B2 | below the threshold
113 | B3 | below the threshold
114 | B4 | 4.01
115 | B5 | below the threshold

Target: GRIP2_3, Q9C0E4
Experiment: holdup assay
Parameters: key: below the threshold = too weak to quantify, mostly under pKd 3.1 to 4
Conditions: plain residues with an end cap or a label only (N-terminal biotin on a linker: ado-ado)

GRIP2_3, Q9C0E4, sequence (Q9C0E4 238-339): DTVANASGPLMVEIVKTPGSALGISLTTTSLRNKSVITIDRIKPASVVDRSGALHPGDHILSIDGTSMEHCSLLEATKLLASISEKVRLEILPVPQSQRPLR

Row | Binder | pKd
116 | B1 | below the threshold
117 | B2 | below the threshold
118 | B3 | below the threshold
119 | B4 | below the threshold
120 | B5 | below the threshold

Target: GORASP1, Q9BQQ3
Experiment: holdup assay
Parameters: key: below the threshold = too weak to quantify, mostly under pKd 3.1 to 4
Conditions: plain residues with an end cap or a label only (N-terminal biotin on a linker: ado-ado)

GORASP1, Q9BQQ3, sequence (Q9BQQ3 1-208): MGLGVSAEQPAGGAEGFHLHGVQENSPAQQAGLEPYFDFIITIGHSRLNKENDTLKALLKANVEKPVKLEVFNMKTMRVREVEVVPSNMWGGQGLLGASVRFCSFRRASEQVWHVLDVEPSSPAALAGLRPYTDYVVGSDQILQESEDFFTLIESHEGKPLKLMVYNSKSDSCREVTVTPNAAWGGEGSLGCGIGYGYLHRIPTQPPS

Row | Binder | pKd
121 | B1 | below the threshold
122 | B2 | below the threshold
123 | B3 | below the threshold
124 | B4 | below the threshold
125 | B5 | below the threshold

Target: MAGI3_2, Q5TCQ9
Experiment: holdup assay
Parameters: key: below the threshold = too weak to quantify, mostly under pKd 3.1 to 4
Conditions: plain residues with an end cap or a label only (N-terminal biotin on a linker: ado-ado)

MAGI3_2, Q5TCQ9, sequence (Q5TCQ9 398-503): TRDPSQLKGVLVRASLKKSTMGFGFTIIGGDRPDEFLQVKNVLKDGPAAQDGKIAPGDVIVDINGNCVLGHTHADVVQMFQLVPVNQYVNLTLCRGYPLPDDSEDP

Row | Binder | pKd
126 | B1 | 3.63
127 | B2 | 3.77
128 | B3 | below the threshold
129 | B4 | below the threshold
130 | B5 | 3.6

Target: T10, RADIL, Q96JH8
T10 sequence (Q96JH8 971-1071, limits assumed, looked up): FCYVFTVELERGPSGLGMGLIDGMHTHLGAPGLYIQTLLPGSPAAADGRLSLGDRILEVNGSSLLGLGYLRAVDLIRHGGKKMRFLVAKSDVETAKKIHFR
Experiment: holdup assay
Parameters: key: below the threshold = too weak to quantify, mostly under pKd 3.1 to 4
Conditions: plain residues with an end cap or a label only (N-terminal biotin on a linker: ado-ado)

Row | Binder | pKd
131 | B1 | below the threshold
132 | B2 | below the threshold
133 | B3 | 4.08
134 | B4 | below the threshold
135 | B5 | 3.61
